Target: the molecule itself
Assay: SEC

B1: soluble transhydrogenase from E. coli (EcSTH), recombinant, with N-terminal Hisx6-tag and C-terminal FLAG-tag (enzyme, Escherichia coli, UniProt P27306 1-466, looked up)
chain: MPHSYDYDAIVIGSGPGGEGAAMGLVKQGARVAVIERYQNVGGGCTHWGTIPSKALRHAVSRIIEFNQNPLYSDHSRLLRSSFADILNHADNVINQQTRMRQGFYERNHCEILQGNARFVDEHTLALDCPDGSVETLTAEKFVIACGSRPYHPTDVDFTHPRIYDSDSILSMHHEPRHVLIYGAGVIGCEYASIFRGMDVKVDLINTRDRLLAFLDQEMSDSLSYHFWNSGVVIRHNEEYEKIEGCDDGVIMHLKSGKKLKADCLLYANGRTGNTDSLALQNIGLETDSRGQLKVNSMYQTAQPHVYAVGDVIGYPSLASAAYDQGRIAAQALVKGEATAHLIEDIPTGIYTIPEISSVGKTEQQLTAMKVPYEVGRAQFKHLARAQIVGMNVGTLKILFHRETKEILGIHCFGERAAEIIHIGQAIMEQKGGGNTIEYFVNTTFNYPTMAEAYRVAALNGLNRLF
Q: B1 was tested. Which “stoichiometry N” value did it give?
A: 12

From PMC11045668 (Nature chemical biology, 2023)
